The Immune Epitope Database (IEDB)

Assays:
HLA-B*58:01 [1] = assay: IEDB peptide-MHC binding, cellular MHC/competitive/fluorescence; ≥ and ≤ were set here for values at or beyond the usual limits of such assays; conditions: source organism: Human herpesvirus 4 strain B95-8
HLA-A*26:03 = assay: IEDB peptide-MHC binding, purified MHC/competitive/fluorescence; filed as Kd, often an IC50 or EC50 that approximates it; ≥ and ≤ were set here for values at or beyond the usual limits of such assays; conditions: source organism: Influenza A virus
HLA-A*69:01 = assay: IEDB peptide-MHC binding, purified MHC/direct/fluorescence; filed as Kd, often an IC50 or EC50 that approximates it; ≥ and ≤ were set here for values at or beyond the usual limits of such assays
HLA-A*11:01 [2] = assay: as above; conditions: source organism: Influenza A virus (A/chicken/Thailand/LV1NF/2004(H5N1))
HLA-B*40:01 = assay: as above
HLA-A*03:01 = assay: as above
HLA-B*15:17 [3] = assay: as above; conditions: source organism: Influenza A virus (A/chicken/Thailand/LV1NF/2004(H5N1))
HLA-B*18:01 = assay: as above; conditions: source organism: Influenza A virus (A/chicken/Thailand/LV1NF/2004(H5N1))
HLA-A*31:01 [4] = assay: as above; conditions: source organism: Influenza A virus (A/chicken/Thailand/LV1NF/2004(H5N1))
HLA-B*27:05 = assay: as above
HLA-A*02:01 = assay: as above
HLA-B*07:02 = assay: as above
HLA-B*44:02 = assay: as above; conditions: source organism: Influenza A virus (A/chicken/Thailand/LV1NF/2004(H5N1))
HLA-B*15:01 = assay: as above
HLA-B*39:01 = assay: as above
HLA-B*57:01 = assay: as above
HLA-B*48:01 = assay: as above
HLA-A*01:01 = assay: as above
HLA-B*58:01 [5] = assay: as above
HLA-A*11:01 [6] = assay: IEDB peptide-MHC binding, purified MHC/competitive/fluorescence; filed as Kd, often an IC50 or EC50 that approximates it; ≥ and ≤ were set here for values at or beyond the usual limits of such assays; conditions: source organism: Bacillus thuringiensis serovar sotto str. T04001
HLA-B*15:17 [7] = assay: as above; conditions: source organism: Bacillus thuringiensis serovar sotto str. T04001
HLA-B*08:01 = assay: as above; conditions: source organism: Bacillus thuringiensis serovar sotto str. T04001
HLA-A*31:01 [8] = assay: as above; conditions: source organism: Bacillus thuringiensis serovar sotto str. T04001
HLA-A*30:01 = assay: as above; conditions: source organism: Bacillus thuringiensis serovar sotto str. T04001
HLA-B*15:09 = assay: IEDB peptide-MHC binding, purified MHC/direct/fluorescence; filed as Kd, often an IC50 or EC50 that approximates it; ≥ and ≤ were set here for values at or beyond the usual limits of such assays; conditions: source organism: Bacillus cereus H3081.97
HLA-A*26:02 = assay: as above; conditions: source organism: Bacillus cereus H3081.97
HLA-B*38:01 = assay: as above; conditions: source organism: Bacillus cereus H3081.97
HLA-B*51:01 = assay: as above; conditions: source organism: Bacillus cereus H3081.97
HLA-B*08:02 = assay: as above; conditions: source organism: Bacillus cereus H3081.97
HLA-A*26:01 = assay: as above; conditions: source organism: Bacillus cereus H3081.97
HLA-B*53:01 = assay: IEDB peptide-MHC binding, purified MHC/competitive/fluorescence; ≥ and ≤ were set here for values at or beyond the usual limits of such assays; conditions: source organism: Human immunodeficiency virus 1
[9] = source organism: Influenza A virus (A/chicken/Thailand/LV1NF/2004(H5N1))
[10] = source organism: Bacillus anthracis

ATLNICNFW
IC50 (HLA-B*58:01 [1]): 5 µM

EMIWDPNGW
Kd (HLA-A*26:03): ≥ 20 µM | Kd (HLA-A*69:01; [9]): ≥ 20 µM | Kd (HLA-A*11:01 [2]): ≥ 20 µM | Kd (HLA-B*40:01; [9]): ≥ 20 µM | Kd (HLA-A*03:01; [9]): ≥ 20 µM | Kd (HLA-B*15:17 [3]): ≥ 20 µM | Kd (HLA-B*18:01): 2 µM | Kd (HLA-A*31:01 [4]): ≥ 20 µM | Kd (HLA-B*27:05; [9]): ≥ 20 µM | Kd (HLA-A*02:01; [9]): ≥ 20 µM | Kd (HLA-B*07:02; [9]): ≥ 20 µM | Kd (HLA-B*44:02): ≥ 20 µM | Kd (HLA-B*15:01; [9]): ≥ 20 µM | Kd (HLA-B*39:01; source organism: Influenza A virus (A/chicken/Hebei/706/2005(H5N1))): ≥ 20 µM | Kd (HLA-B*57:01; [9]): ≥ 20 µM | Kd (HLA-B*48:01; [9]): ≥ 20 µM | Kd (HLA-A*01:01; [9]): ≥ 20 µM | Kd (HLA-B*58:01 [5]; source organism: Influenza A virus (A/Puerto Rico/8/34/Mount Sinai(H1N1))): 0.185 µM

TVIRFWHAM
Kd (HLA-A*11:01 [6]): 0.0979 µM | Kd (HLA-B*15:17 [7]): 0.293 µM | Kd (HLA-B*08:01): ≥ 20 µM | Kd (HLA-A*31:01 [8]): 0.0344 µM | Kd (HLA-A*30:01): 0.168 µM | Kd (HLA-A*69:01; [10]): ≤ 0.001 µM | Kd (HLA-B*15:09): 6.04 µM | Kd (HLA-A*26:02): ≤ 0.001 µM | Kd (HLA-B*40:01; [10]): ≥ 20 µM | Kd (HLA-A*03:01; [10]): ≥ 20 µM | Kd (HLA-B*27:05; [10]): ≥ 20 µM | Kd (HLA-A*02:01; [10]): ≥ 20 µM | Kd (HLA-B*07:02; [10]): 1.81 µM | Kd (HLA-B*38:01): ≥ 20 µM | Kd (HLA-B*15:01; [10]): 0.0207 µM | Kd (HLA-B*51:01): ≥ 20 µM | Kd (HLA-B*08:02): ≥ 20 µM | Kd (HLA-B*39:01; source organism: Bacillus cereus H3081.97): 0.05 µM | Kd (HLA-B*57:01; [10]): 0.593 µM | Kd (HLA-B*48:01; [10]): ≥ 20 µM | Kd (HLA-A*01:01; [10]): ≥ 20 µM | Kd (HLA-A*26:01): 0.012 µM | Kd (HLA-B*58:01 [5]; [10]): 0.074 µM

WPVKVIHT
IC50 (HLA-B*53:01): ≥ 20 µM
